Experimental findings from FireProtDB (doi:10.1093/protein/gzl019) are described below.

For the series the following is noted: Bacillus caldolyticus, pH 7, Thermal, Na cacodylate/HCl 0.1 M, reversible: Yes, whole UniProt chain shown.

B1: Cold shock protein CspB wild type, P41016 (protein)
chain: MQRGKVKWFNNEKGYGFIEVEGGSDVFVHFTAIQGEGFKTLEEGQEVSFEIVQGNRGPQAANVVKL
As a reminder, the Tm is the temperature at which the thermal transition is half complete. As for B1, under “CD”, the Tm worked out at 76.9 °C and the “unfolding enthalpy (van 't Hoff)” value stood at 58.6 kcal/mol. In addition, where the note is “DSC”, the midpoint of thermal melting (Tm) was 76.9 °C and the “unfolding enthalpy (calorimetric)” value was 61.4 kcal/mol.
